Assay results: patent publication US20220049002A1 (KINDRED BIOSCIENCES, published 2022)
Numbering of substitutions follows the chain as printed. Values belong to the binder of their own block, whether it stands above or below them.

Key:
[1] = target: T1, Canine IL4R (extracellular domains produced by 293 cells; Examples 16-19) (canine, biotinylated); test: method not stated (binding affinity to canine IL4R)
T1 construct: also called biotinylated canine IL4R
T1 chain: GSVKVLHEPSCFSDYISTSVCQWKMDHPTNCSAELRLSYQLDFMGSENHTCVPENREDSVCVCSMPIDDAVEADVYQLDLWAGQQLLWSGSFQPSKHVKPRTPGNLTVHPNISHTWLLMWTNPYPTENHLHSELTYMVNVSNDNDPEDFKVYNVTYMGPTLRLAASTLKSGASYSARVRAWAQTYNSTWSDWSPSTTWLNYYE

[2] = target: Human IL4R-ECD_C-HuFc_His6 (processed) (human); test: Western blot
[3] = target: Canine IL4R-ECD_C-HuFc_His6 (processed) (canine); test: Western blot
[4] = target: T1, Canine IL4R (extracellular domains …); test: BLI (ForteBio OctetRed): biotinylated canine IL4R on streptavidin tip
Description: The four mouse antibodies were purified from the hybridoma cell cultures and their affinities to canine IL4R were measured using biosensor (ForteBio OctetRed). Biotinylated canine IL4R was bound to the streptavidin sensor tip. The Kds of the 4 candidates were all less than 10 nM.

[5] = target: T1, Canine IL4R (extracellular domains …); test: BLI (ForteBio OctetRed)
Text: DNA sequences encoding a chimeric antibody were designed for a fusion of murine VH and murine VL to canine constant heavy chain IgG-B and canine constant light chain (kappa). The nucleotide sequences were synthesized chemically and inserted into an expression vector suitable for transfection into a CHO host cell. After transfection into CHO cells, the light chain or heavy chain protein or both were secreted from the cell. All four chimeric canine IgG-B were purified by single step Protein A column chromatography.

[6] = target: T2, Canine IL4R-ECD_C-His6 (processed) (canine, biotinylated through amine chemistry in the ELISA and Octet assays); test: BLI (Octet): biotinylated canine IL4R-ECD_C-His6 on streptavidin tips, 1:1 model
T2 chain: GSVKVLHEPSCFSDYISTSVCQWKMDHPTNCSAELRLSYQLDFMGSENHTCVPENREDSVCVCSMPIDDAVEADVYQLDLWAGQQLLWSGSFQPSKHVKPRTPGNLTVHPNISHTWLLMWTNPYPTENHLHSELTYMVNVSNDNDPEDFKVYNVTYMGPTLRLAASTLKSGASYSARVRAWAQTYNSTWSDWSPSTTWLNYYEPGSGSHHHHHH
Description: The binding analysis was performed using an Octet Biosensor as follows. Briefly, canine IL4R-ECD_C-His6 (SEQ ID NO: 107) was biotinylated through amine chemistry. The free unreacted biotin was removed by extensive dialysis. Biotinylated canine IL4R-ECD_C-His6 was captured on streptavidin sensor tips. The association of either Clone B or I antibody and canine IL4R-ECD_C-His6 (25 μg/mL) was monitored for 600 seconds. Dissociation was monitored for 600 seconds. A buffer only blank curve was subtracted to correct for any drift. The data were fit to a 1:1 binding model using ForteBio™ data analysis software to determine the kₒₙ, koff, and the Kd. The buffer for dilutions and all binding steps was 20 mM phosphate, 150 mM NaCl, pH 7.2.

[7] = target: Canine IL4R-ECD_C-HuFc_His6 (processed) (canine); test: BLI (Octet): canine IL4R-ECD_C-HuFc_His6 on anti-human Fc tips
Description: An alternative binding assay was performed also using an Octet Biosensor. Canine IL4R-ECD_C-HuFc_His6 (SEQ ID NO: 109) was captured on anti-human Fc-bound sensor tips. The association of either Clone B or I antibody and canine IL4R-ECD_C-HuFc_His6 was monitored for 600 seconds. Dissociation was monitored for 600 seconds. The buffer for dilutions and all binding steps was 20 mM phosphate, 150 mM NaCl, pH 7.2. […] In addition, amine conjugation may affect the affinity of canine IL4R-ECD_C-His6 to interact with Clone B and I antibodies.

Chain of Human IL4R-ECD_C-HuFc_His6 (processed) (human) (chain, as listed by the source limits assumed): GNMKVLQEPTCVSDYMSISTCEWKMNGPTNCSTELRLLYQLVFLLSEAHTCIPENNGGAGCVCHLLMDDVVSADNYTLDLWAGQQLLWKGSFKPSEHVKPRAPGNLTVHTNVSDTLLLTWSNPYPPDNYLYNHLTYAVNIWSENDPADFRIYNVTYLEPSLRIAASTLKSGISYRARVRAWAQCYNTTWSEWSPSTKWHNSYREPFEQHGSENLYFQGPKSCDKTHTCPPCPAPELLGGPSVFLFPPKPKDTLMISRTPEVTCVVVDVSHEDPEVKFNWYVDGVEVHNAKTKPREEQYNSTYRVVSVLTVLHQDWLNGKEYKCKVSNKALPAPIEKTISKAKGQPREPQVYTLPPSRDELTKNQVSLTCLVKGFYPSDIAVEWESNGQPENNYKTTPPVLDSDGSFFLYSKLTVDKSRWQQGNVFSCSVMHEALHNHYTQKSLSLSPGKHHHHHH

B1: Caninized Clone M9 antibody, variable HC v1 / variable LC v1 (variant canine IgG-B C1q-, CD16-; canine kappa) (antibody, V domains shown)
VH: EVQLVESGGDLVKPGGSLRLSCAASGFTFSSFGMHWVRQAPGKGLEWVAYIRSDSSTIYYADAVKGRFTISRDNAKNTLYLQMNSLRAEDTAMYYCARSGYYGSFSLTYWGQGTLVTVSS
VL: DIMLTQTPLSLSVSPGEPASISCSASSSVSSNYLHWYLQKAGQSPRLLIYRTSNLPSGVPDRFSGSGSGTDFTLRIGRVEAEDAGIYYCQQGSGMLTFGQGTRLEVRR
notes: also called caninized M9 (HC v1)
- Kd [1]: ≤ 1 nM

B2: Caninized Clone M9 antibody, variable HC v2 / variable LC v1 (variant canine IgG-B C1q-, CD16-; canine kappa) (antibody, V domains shown)
VH: B1 VH with A23V, E46Q
VL: B1 VL
notes: also called caninized M9 (HC v2)
- Kd [1]: ≤ 1 nM

B3: M8 mouse monoclonal antibody (anti-canine IL4R) (antibody, V domains shown)
VH: QVQLQQSGPELVKPGALVKISCKASGYTFTSYDINWVKQRPGQGLEWIGWIYPGDGSTKYNEKFKGKATLTADKSSSTAYMQLSSLTSEDSAVYFCARSSFVVWGAGTTVTVSS
VL: DIQMTQSSSYLSVSLGGRVTITCKASDPINNWLAWYQQKPGNAPRLLISGATSLETGVPSRISGSGSGKDYSLSITSLQTEDIATYYCHQYWSIPYTFGGGTKLEIK
notes: Mouse antibody purified from hybridoma culture; also called Clone M8
- binding result [2]: no binding
- binding result [3]: binds
- Kd [4]: < 10 nM

B4: Murine-canine chimeric M8 antibody (canine IgG-B, canine kappa) (antibody, V domains shown)
VH: B3 VH
VL: B3 VL
notes: Murine VH and VL fused to canine constant heavy chain IgG-B and canine constant light chain (kappa); also called chimeric canine IgG-B (M8)
- Kd [5]: < 10 nM

B5: Clone B antibody (mouse monoclonal anti-canine IL4R) (antibody, mouse IgG1, kappa, V domains shown)
VH: EVKLEESGPELVKPGASVKMSCKASGYTFTSYVMHWVKQKPGQGLEWIGYINPKNDGTFYNGKFKGKATLTSDKSSSTAYMELSSLTSEDSAVYYCAAFNYGIAYWGQGTLVTVSS
VL: IVLTQTPSSLSASLGERVSLTCRASQEISGYLSWLQQKPDGTIKRLIYAASTLDSGVPKRFSGSRSGSDFSLTISSLESEDFADYYCVQYASYPWTFGGGARLEIKR
notes: Mouse IgG; also called anti-IL4R-mAb Clone B
- Kd [6]: 2.03 nM
- Kd [7]: ~0.1 nM

B8: M3 mouse monoclonal antibody (anti-canine IL4R) (antibody, V domains shown)
VH: QVQLKESGPGLVAPSQSLSITCTVSGFSLSRYSVHWVRQPPGKGLEWLGMIWGGGSTDYNSVFKSRLSISKDNSKSQVFLKMNSLQTDDTAMYYCARTYRGYALDYWGQGTSVTVSS
VL: DIQMTQTTSSLSASLGDRVTISCRASQDISNYLNWYQQKPDGTVKLLIYYTSRLQSGVPSRFSGSGSGTDYCLTISNLEQEDIATYFCQQANTLPLTFGSGTKLELK
notes: Mouse antibody purified from hybridoma culture; also called Clone M3
- binding result [2]: no binding
- binding result [3]: binds
- Kd [4]: < 10 nM

B9: M5 mouse monoclonal antibody (anti-canine IL4R) (antibody, V domains shown)
VH: B8 VH
VL: B8 VL
notes: Mouse antibody purified from hybridoma culture; also called Clone M5
- Kd [4]: < 10 nM

B11: Murine-canine chimeric M3 antibody (canine IgG-B, canine kappa) (antibody, V domains shown)
VH: B8 VH
VL: B8 VL
notes: Murine VH and VL fused to canine constant heavy chain IgG-B and canine constant light chain (kappa); also called chimeric canine IgG-B (M3)
- Kd [5]: < 10 nM

Second part, the binder after the results:

- Kd [1]: ≤ 1 nM
B6: Caninized Clone M3 antibody, variable HC v1 / variable LC v1 (variant canine IgG-B C1q-, CD16-; canine kappa) (antibody, V domains shown)
VH: EVQLVESGGDLVKPAGSLRLSCTVSGFSLSRYSVHWVRQAPGKGLEWLGMIWGGGSTDYNSVVKGRFTISRDNAKNTVYLQMNSLRAEDTAMYYCARTYRGYALDYWGQGTLVTVSS
VL: DIVMTQTPLSLSVSPGEPASISCRASQDISNYLNWYLQKAGQSPRLLIYYTSRLQSGVPDRFSGSGSGTDFTLRIGRVEAEDAGIYFCQQANTLPLTFGQGTRLEVRR
notes: also called caninized M3 (HC v1)

- Kd [1]: ≤ 1 nM
B7: Caninized Clone M3 antibody, variable HC v2 / variable LC v1 (variant canine IgG-B C1q-, CD16-; canine kappa) (antibody, V domains shown)
VH: ELTLQESGPGLVKPSQTLSLTCTVSGFSLSRYSVHWIRQPRGRGLELLGMIWGGGSTDYNPAFQGRISITADTAKNQFSLQLSSMTTEDTAVYYCARTYRGYALDYWGQGTLVTVSS
VL: B6 VL
notes: also called caninized M3 (HC v2)

- Kd [5]: < 10 nM
B10: Murine-canine chimeric M5 antibody (canine IgG-B, canine kappa) (antibody, V domains shown)
VH: B8 VH
VL: B8 VL
notes: Murine VH and VL fused to canine constant heavy chain IgG-B and canine constant light chain (kappa); also called chimeric canine IgG-B (M5)

- binding result [2]: no binding
- binding result [3]: binds
- Kd [4]: < 10 nM
B12: M9 mouse monoclonal antibody (anti-canine IL4R) (antibody, V domains shown)
VH: DVQLVESGGGLVQPGGSRKLSCAASGFTFSSFGMHWVRQAPEKGLEWVAYIRSDSSTIYYADTVKGRFTISRDNPKNTLFLQMTSLRSEDTAMYYCARSGYYGSFSLTYWGQGTLVTVSA
VL: EIVLTQSPTTMAASPGEKITITCSASSSVSSNYLHWYQQKPGFSPKLLIYRTSNLPSGVPARFFGSGSGTSYSLTIGTMEAEDVATYYCQQGSGMLTFGAGTKLELK
notes: Mouse antibody purified from hybridoma culture; also called Clone M9

- Kd [5]: < 10 nM
B13: Murine-canine chimeric M9 antibody (canine IgG-B, canine kappa) (antibody, V domains shown)
VH: B12 VH
VL: B12 VL
notes: Murine VH and VL fused to canine constant heavy chain IgG-B and canine constant light chain (kappa); also called chimeric canine IgG-B (M9)
